# Experimental data published in the supplement of paper PMC9112550, “Optimization of the antimicrobial peptide Bac7 by deep mutational scanning” (BMC Biology, 2022).
# System: Escherichia coli TOP10
# Experiment: shrunken log2 fold change of peptide-encoding DNA abundance (4.5 h post-induction vs induction); higher = less antimicrobial activity (less host growth inhibition)
# Conditions: time post-induction: 4.5 h; library: site-saturation at positions 5, 18, 19, 20
# 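Also: peptides expressed intracellularly from a pBAD plasmid library in pooled LB shake-flask culture, induced with 0.3% L-arabinose, DNA abundance read by NGS, three biological replicates, DESeq2 with apeglm shrinkage.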
row,Sequence,shrunken log2 fold change
1,RRIRVRPPRLPRPRPRPWARPRP,0.416
2,RRIRFRPPRLPRPRPRPGRNPRP,-0.173
3,RRIRQRPPRLPRPRPRPMHDPRP,-0.0216
4,RRIRYRPPRLPRPRPRPAFVPRP,-0.178
5,RRIRDRPPRLPRPRPRPKERPRP,-0.0193
6,RRIRLRPPRLPRPRPRPTYYPRP,-0.399
7,RRIRMRPPRLPRPRPRPKQCPRP,0.208
8,RRIRWRPPRLPRPRPRPYCHPRP,-0.437
9,RRIRYRPPRLPRPRPRPCAPPRP,-0.329
10,RRIRARPPRLPRPRPRPINEPRP,-0.0644
11,RRIRYRPPRLPRPRPRPHAEPRP,-0.144
12,RRIRLRPPRLPRPRPRPGKGPRP,-0.0192
13,RRIRGRPPRLPRPRPRPMNIPRP,0.127
14,RRIRPRPPRLPRPRPRPDKVPRP,-0.249
15,RRIRNRPPRLPRPRPRPEKIPRP,-0.0207
16,RRIRVRPPRLPRPRPRPMKCPRP,-0.00104
17,RRIRCRPPRLPRPRPRPPFIPRP,-0.154
18,RRIRIRPPRLPRPRPRPGTSPRP,-0.0281
19,RRIRARPPRLPRPRPRPTVMPRP,0.497
20,RRIRMRPPRLPRPRPRPQWNPRP,-0.149
21,RRIRCRPPRLPRPRPRPLLQPRP,0.167
22,RRIRTRPPRLPRPRPRPVTLPRP,-0.37
23,RRIRTRPPRLPRPRPRPLVWPRP,0.44
24,RRIRERPPRLPRPRPRPEECPRP,-0.000921
25,RRIRGRPPRLPRPRPRPPNGPRP,0.534

row,Sequence,shrunken log2 fold change
1,RRIRKRPPRLPRPRPRPGLLPRP,0.494
2,RRIRGRPPRLPRPRPRPTEQPRP,0.883
3,RRIRWRPPRLPRPRPRPPCNPRP,0.0762
4,RRIRSRPPRLPRPRPRPQRMPRP,-0.133
5,RRIRSRPPRLPRPRPRPVQSPRP,-0.0536
6,RRIRQRPPRLPRPRPRPENIPRP,-0.0809
7,RRIRTRPPRLPRPRPRPVLAPRP,0.479
8,RRIRPRPPRLPRPRPRPSCGPRP,0.137
9,RRIRKRPPRLPRPRPRPENEPRP,0.918
10,RRIRKRPPRLPRPRPRPRNGPRP,0.157
11,RRIRNRPPRLPRPRPRPWYNPRP,-0.00192
12,RRIRHRPPRLPRPRPRPHRCPRP,0.0171
13,RRIRVRPPRLPRPRPRPCGHPRP,0.0386
14,RRIRCRPPRLPRPRPRPLQEPRP,0.299
15,RRIRCRPPRLPRPRPRPWYKPRP,-1.01
16,RRIRIRPPRLPRPRPRPTDNPRP,-0.964
17,RRIRYRPPRLPRPRPRPISHPRP,-0.675
18,RRIRMRPPRLPRPRPRPACQPRP,0.141
19,RRIRVRPPRLPRPRPRPIQTPRP,-0.0164
20,RRIRMRPPRLPRPRPRPRDWPRP,1.31
21,RRIRDRPPRLPRPRPRPYNWPRP,-0.281
22,RRIRWRPPRLPRPRPRPVMQPRP,0.294
23,RRIRYRPPRLPRPRPRPPVYPRP,-0.406
24,RRIRQRPPRLPRPRPRPACNPRP,0.0438
25,RRIRYRPPRLPRPRPRPIMSPRP,-0.114

row,Sequence,shrunken log2 fold change
1,RRIRERPPRLPRPRPRPLEMPRP,-0.216
2,RRIRARPPRLPRPRPRPNPEPRP,0.0539
3,RRIRLRPPRLPRPRPRPKWWPRP,0.396
4,RRIRNRPPRLPRPRPRPYYSPRP,-0.541
5,RRIRNRPPRLPRPRPRPQRPPRP,0.206
6,RRIRNRPPRLPRPRPRPKYLPRP,-0.0259
7,RRIRKRPPRLPRPRPRPRGDPRP,0.396
8,RRIRTRPPRLPRPRPRPQQRPRP,-0.0699
9,RRIRQRPPRLPRPRPRPSSCPRP,0.0394
10,RRIRLRPPRLPRPRPRPDLMPRP,-0.145
11,RRIRERPPRLPRPRPRPPQTPRP,0.223
12,RRIRLRPPRLPRPRPRPAFNPRP,-0.189
13,RRIRERPPRLPRPRPRPPKNPRP,0.284
14,RRIRCRPPRLPRPRPRPEPMPRP,0.176
15,RRIRLRPPRLPRPRPRPHGMPRP,-0.177
16,RRIRPRPPRLPRPRPRPPAMPRP,0.447
17,RRIRYRPPRLPRPRPRPMGMPRP,-0.188
18,RRIRRRPPRLPRPRPRPHIMPRP,-0.435
19,RRIRGRPPRLPRPRPRPQIIPRP,0.203
20,RRIRWRPPRLPRPRPRPLAGPRP,0.493
21,RRIRIRPPRLPRPRPRPGRNPRP,0.0581
22,RRIRTRPPRLPRPRPRPRNRPRP,-0.0827
23,RRIRFRPPRLPRPRPRPYFWPRP,-0.241
24,RRIRPRPPRLPRPRPRPLINPRP,-0.298
25,RRIRTRPPRLPRPRPRPTVSPRP,0.077
